In US20240382604A1 (GUANGZHOU MEDICAL UNIVERSITY, published 2024):
No end group written: not given here.

Target: papain-like protease (PLpro), enzyme used in the in vitro enzyme assay (SARS-CoV-2, UniProt P0DTD1 1564-1878, limits assumed)
Test: cell-based or functional assay

SRLRGG-GRL0617 [peptide-drug conjugate RG-17 (polypeptide SRLRGG linked with GRL0617)]
IC50, inhibition of PLpro activity in the in vitro enzyme assay (hydrolysis of substrate RLRGG-AMC, AMC fluorescence): 1.4 µM
